Results from patent publication US20100144029.

Target: ClpP proteasome (UniProt P0A6G7)

Substance: processed E. coli ClpX protein (after proteolytic removal of the T7B carboxyl-terminal extension)
- ATPase activity and ability to cooperate with the ClpP proteasome in degrading model protein substrates: full biological activity
